{
  "source": "patent US10138466B2",
  "about": "“Compositions and methods for differentiating stem cells into cell populations comprising beta-like cells” (REGENERATIVE MEDICAL SOLUTIONS, INC., priority 2014, dated 2018)",
  "molecules": {"B1": {"name": "Activin A: member of the TGF-β superfamily (protein, UniProt P08476 311-426, looked up)", "Inhibin beta A chain": "GLECDGKVNICCKKQFFVSFKDIGWNDWIIAPSGYHANYCEGECPSHIAGTSGSSLSFHSTVINHYRMRGHSPFANLKSCCVPTKLRPMSMLYYDDGQNIIKKDIQNMIVEECGCS", "modifications": "Inhibin beta A chain", "notes": "member of the TGF-β superfamily"}},
  "tested_on": "hESCs",
  "assay": "Activin A alone in serum-free medium, pancreatic cell differentiation",
  "assay_type": "cell-based, human",
  "details": "Activin A at 5 ng/ml, 50 ng/ml, or 100 ng/ml in serum-free medium",
  "excerpt": "Activin is a member of the TGF-β superfamily and has various effects on diverse biological systems (Abe Y, et al. Growth Factors 2004 June; 22(2):105-10; herein incorporated by reference in its entirety). Activin A has been reported to have a role in the induction of definitive endoderm from hESCs (D'Amour, K. A., et al. (2005); herein incorporated by reference in its entirety).",
  "data": [
    {"molecule": "B1", "values": [
      {"measurement": "induction of pancreatic cell differentiation", "result": "cannot induce pancreatic cell differentiation"}
    ]}
  ]
}
